Paper PMC4369838

Target: Synthetic Aβ(1–42), prepared as amyloid-beta-derived diffusible ligands (ADDLs) (human)
Assay: SEC; analytical SEC of the ADDL preparation (Superdex 75 5/150, PBS, pH 7.4); oligomer peak area divided by oligomer plus monomer peak area; three separate experiments

percent of total Aβ in species larger than monomers: 47%
Substance: Synthetic Aβ(1–42), prepared as amyloid-beta-derived diffusible ligands (ADDLs) (peptide)
